From the PETadex activity labels

B1: unnamed (protein)
chain: MKTSRHSTATTTLTRLARLALAAAAVLLSAAAQAQVVIFQENFNSGLGQFTASGTVSTSSGGARMQGCGGGTDGTITSSPISTVGFTNLKLSFDRTTTGLDSGEAGIAEYSVNGSTWTVIESTQSSSGRVTIALPAAAAGQAALRLRFRVNASLSSETYTVDNIPLAGTPGGNSAPGPGGTPYQRGPDPTAASLEASDGPFAVATLTVSSASGYGAGTIYYPTNTEGPFAAIAVVPGYTGTQSSIQWLGPRLASHGFVVITIDTNSLSDNPESRATQLMAALNQLVTLSNTSGHPIYGKVDSNRLGVMGHSMGGGGTLVAARDNPTLKAAIPLAPWYSSTNFSGVTVPTLVVACQSDTVAPVSSHALPMYNSIPSSTDKAYLEISGGDHLCVTTGNGNKAIQGKYVVAWMKRFLDNDTRYSPFLCGAPHQADLSGSAVSEYRDTCPY
B2: unnamed (protein)
chain: MISNRRAPARRAGAALTALALAVVLAACDIRGPAPTEQILEAPSGPFAVGSVAVPSSAGFGGGTIYYPSEAAGPFGIIAVTPGFLGNQTSIGTWGPRLASHGFVTITINTTGGFILPDQRSAEQRQALTYVVNQGNRSSSPIFGKVDGDRKGVAGHSMGGGGTLVSAREDPTIRAAVPFAPWYTSTNFSNVTVPTLIVACQSDGVAPVASHASPFYNSIPATTDKSYISVAGADHFCANSPTGGANDVGKYVVAFFKRFVDGDTRYDPWVCG
B3: unnamed (protein)
chain: MRHRSISALVLGTAVVAGAAQAQINPFAKGPDPTPASIQATGPFAISMQTVPRAAGFGGATVYSPNDPGSYALVVLCPGFIETQSAISAVGQRLATHGFVVATIDTVTTIDFPASRGTQLIAALQTITALNTGPVAGKIDTTRLVVGGHSMGGGGTLEASRTNPAIKAGLPIAPFHFVKQFNTPVPQLITGGQVDAIAPVGQHAIPFFEMLPDATPKIYAELTGGNHFFVTQNPPNQPINKLLLAWTKRFADNDLRYEQFITATAVQAEVANGALSQTRREATPF
B4: unnamed (protein)
chain: MKTTTIIKSTLCAFTLTFSLSAFSGGGGGGGGGNNGNLPPPDTCNTNCGYEIGPNPTLGFLQASQGPLPVSSTNVSSSVNGFGGGTIYYPSNISDEMAAISIAPGFTNTQSAVAWWGPILASHGFVVITINTNSRFDQPESRSRQLDSALSYLISEGDRGSSPISGLVDENRLATMGFSMGGGGSLRSASRNRLSAAVPLAPWSTGSNNFDDIGVPTLIMACENDTTARVNTHASPFYNAIPGSTDKAFMEINNGPHNCANGESSTNRSLLSTYGVSWMKRFLDKDRRYNQFLCGPNHEANSRISEYRDTCSYG
B5: unnamed (protein)
chain: MERGNHRAKWAIGFGLLLLGAAAHSQTNPYQKGPDPTSATLNATSGSFAVATSTVSSLAANGFGGGTIYYPTQTGTYAVLAISPGFTATQSSIAWLGRRISTHGFVVITIDTNSTLDQPPSRATQLMAALRHVTDLSSSTVRSRVDASRRGVAGHSMGGGGTLIAARDNPSLKAAVPLTAWSTTKIFSTVQVPTLVVGAESDSVAPVSSHSIPFYNSLSNSLDKAYAELNNASHFAPNSTNTPIGRYSVAWVKRFMDNDTRYTPFLCGTPHTSYATSTVFSDYRSTCPY
B6: unnamed (protein)
chain: MTTKRHRTATTPTRRARLALLAAATLLSFAAQAQVVIFQENFNSGLGQFTASGTVSTSSGGAVMQGCYNCTDGAITSKPISTVGFTNLKLSYDRTTTGLDSGEYGVAAYSVNGGAWTVIESIQSSSGRVTIALPAAAANQASLRLRFRVNASLSAETFTVDNVVLEGTPGGAPGPGGNPYQKGPDPTAAALEASAGPFTVATTTVSASSASGYGGGTIYYPTNVAGPFAAIAVVPGYTATQSSISWWGPRLASHGFVVITIDTNSTSDLPASRATQLMAALNQLKTFSATSGHAIYGKVDPNRLGVMGWSYGGGGTLIAARDNPTLKAAIPLAPKTSSGTDFSGITVPTLIVGCESDTTAPVSSWAIPFYNSIPASTKKAYLEINNGDHFCVTTSNSSADKAILGKYGVAWMKRFLDNDTRYSPFLCGAPHQADLSGNAAISEYRDNCPY
B7: unnamed (protein)
chain: MKTLFKAAVLCGAMLTSLGVLAQANPYQKGPDPTVSNLEAARGSFAVSSTSISGLSATGFGGGSLHYPTAAGSYGLIAVAPPYLAQSSSIAWLGPRLASHGFVVVMIDVNSTLDFPESRSRQQLAAIDYAIAQSARTTSPIYRKVDTTRRGVSGHSMGGGASILTARNAPANIKGAFPLTPWSSDKNFSSLQVPTGYLACESDTVAANADHSLNFYNRMPASTPKGYYELRGESHFCPQSTANNPVIGKYLVAWMKRFVDNDTRFSPFLSGALPNADLSSRRFSALRTSGL
B8: unnamed (protein)
chain: MIKDFLLSRVVIVAGTLIFSMPTLAEITVSETTVVIPKEALPVPTLSNCITDSAITADALSDTRDNGPFTVSTKRVPRQSANGFGGGTIHYPTNASGCGLLGGIAVVPGYVSYESSIKWWGPRLASWGFVVITINTNHISDNPDSRATQLNAALDHLLLDSTVANMVDRDRLGVIGWSMGGGGALRLATDRSTVRAIIAQTPYHDTSYPTMDTPALFIACENDRIAPNKKYTNVFYNNATGPKMKVEVSNGSHFCASHGFHEILLSKPGIAWMQRYINGDTRFDQFLCSSENYNSSPRISSYNYKNCL
B9: unnamed (protein)
chain: MTEKDTSMKFFQATLSLTVGVLLTTALSGTALAESAYLRGPAPTVASVEAPAGPYQVTSQVMKDPVGYKAGTVFYPSDAQGQSFGLIVVAPGFIETQSWNAWWAQYLASHGFVVINIDTQSTLEFPAARAKEELAALNDVVRRSTQPDSPLFGLVDASRQGAMGHSMGGGATLEIAKANPYLKAIVPMAPFQTSGTDYSKLTVPTLIMACKGDVVATASSHSEPIYKSLSPSLDKAYLEMQGGAGHPCTTSVGTSDKVRTLAGKYGLAWFKRFLDEDTRYSQFLCGIPHGLDMFGKVISGYKGNCPY
B10: unnamed (protein)
chain: MFGCYGCTDGSIVSAPISTVGYSDIKVTFTRSSSGLDLGEAGIAEWSANGSTYTVIESSRSVSGAATFNLPSGAAGQSGLRVRFRVDASLSSEYYTVDTITVEGTSSGGGGGGGVQIGPDPTTSTLESSSGGSFSVQYQSVSSLSTSGFDGGRLYYPTTSGQYGGIVLCPGYTASSSSLAWWGERLASWGFIVLIIDTNSAYDQPSSRATQLMAGVAWLKARNNDSGHALYGKLRESDIAVGGHSMGGGGTLIALRDNPSLKTGFAMTPWNSSTNFSGITQPTFILGCESDSVAPNSSHSIPFYNSISSSVKKVYAEVDGASHFCPNSSDAKMGKYGIAWYKRFLDGDTRFQPWLCPSATGGN
B11: unnamed (protein)
chain: MERHNSRRRWGMGLGLLLLAASAHAQYQKGPDPTSASLNASSGPFSVATSSVSSLAAVGFGSGTIYYPTTAGSYAVLAICPGFTATESSIAWLGRRIATHGFVVITINTDSTLDQPPSRATQLMAALRHVTESSSATVRSRVDASRRGVAGHSMGGGGTLYAARDNPSLKAAVPLTAWSTTKTFSSMQVPTLVVGAENDSIASVNSHSIPFYNGLPGSLDKAYAELNGASHFAPNTTNTPIGRYSVAWVKRFMDEDTRYSPFLCGAPHQSYA
B12: unnamed (protein)
chain: MKHFHRFGATLFRGAAIAGPLALLGVAHAQTTAPTSASLNATAGPLSIASSTVSSLAANGFGGGTIYYPTASGRFGVVAISPGFTASQSTIEWLGRRMASHGFVVITIDTITTLDYPDSRATQLRAALDHVINRASTTVRNKVDPARRAVAGHSMGGGGSLIAAQADSTLKAAYPMTPWNITENFSRVRVPTMIIGADGDTIAPVTSHARPFYASIPNTTFKAYGELNNATHFAPNVTNTPIGRYGVAWMKRFVDGDTRYSTFLCGAEQNRYNTSLVFDQYRSNCPY
B13: unnamed (protein)
chain: MDWPRPRCVRRRTSNGQRRSTTCRGDIPMSTRVTHSRLTLIRCLALAAPLMCLGLAQAQTSPPTSESLNARSGPLSIASENVSRLAARGFGGGTIYYPRTSGRYGLIAISPGFTATESSVAWIGEKLASHGFVAIVINTNSTLDQPSSRARQLRAALDHAISSASSTVRNRIDPSRQAVAGHSMGGGGSLIAAEDDPSLKAAFPLTPWNTSSSFTRVRVPSMIFGADGDTIAPVAVHARPFYGSIPRTTSKAYAELQSATHFAPNVRNEAIGRYGVAWMKRFMDGDTRYSTFLCGSEHDRYNTSLRFDQFQSNCPY
B14: unnamed (protein)
chain: MSLDVWEWSTEAGGDIRQWDYLGADNQKWRINDLGNGYHSIISAYNGLSLDVYEWSTSNGGDIRQWDYTGAENQQWAFQPTGTSGGGSTGGGSTSCVSSSDITSSKLSATGASGPYSVRSKGVSNWSASGFGGGTIWYPTNASACGRMPGIAVVPGFLSYESSIRWWGARLASWGYVVITIDTNSIYDQPPSRGRQLSDALDHIIYDSTTRNMVDPNRLGAIGWSMGGGGSIWLANNRPEVKAIIPQAPWYLTTTSTSKPAFYIACESDTVAPTYSHVDDFYRYSTGPKMKIEINNGSHWCANSGNGNEGTLGKAGISWMKRYINGDTRFNQFLCGQENYGSRYDVSDYDYASCP

Substrate: BHET
Settings: 120 h

Row | Protein | plate clearing
1 | B1 | clears the plate (z > 3 vs empty vector)
2 | B2 | not clears the plate
3 | B3 | not clears the plate
4 | B4 | not clears the plate
5 | B5 | not clears the plate
6 | B6 | not clears the plate
7 | B7 | not clears the plate
8 | B8 | not clears the plate
9 | B9 | not clears the plate
10 | B10 | not clears the plate
11 | B11 | not clears the plate
12 | B12 | not clears the plate
13 | B13 | not clears the plate
14 | B14 | not clears the plate
